Data published in patent US20120251547A1 (Amgen, published 2012).
Like-named read-outs stand apart in the source and are kept apart here.

T1: chimera D
T1 construct: human IL-17RA extracellular domain with mouse Domain D; column head 176-197; also called Construct D
T1 IL-17RA extracellular domain with FLAG-polyHis tag: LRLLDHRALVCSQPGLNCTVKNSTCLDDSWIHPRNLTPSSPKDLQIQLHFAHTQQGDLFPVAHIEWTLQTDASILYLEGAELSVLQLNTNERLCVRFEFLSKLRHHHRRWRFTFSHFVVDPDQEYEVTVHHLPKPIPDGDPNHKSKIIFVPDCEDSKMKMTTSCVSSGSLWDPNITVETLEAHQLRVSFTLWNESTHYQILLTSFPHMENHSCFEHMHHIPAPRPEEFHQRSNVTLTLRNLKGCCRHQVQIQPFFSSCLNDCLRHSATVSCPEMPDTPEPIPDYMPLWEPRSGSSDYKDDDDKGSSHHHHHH


Columns and labels:
[1] = target: T2, human IL-17RA, full-length, on cells (human, UniProt Q96F46 33-866); test: cell-based or functional assay
[2] = target: T3, cynomolgus IL-17RA, on cells (cynomolgus); test: FACS competition: non-clonal supernatant inhibiting biotin-huIL-17A (competitor) binding to cyno IL-17RA+ CHO cells
T3 construct: whole, on cells; also called CHO-cynoIL-17RA; cyno IL-17RA+ CHO cells

[3] = target: T2, human IL-17RA, full-length, on cells; test: cell-based or functional assay; remark: listed apart in the source
[4] = target: human IL-17RA (form used in the low resolution BIAcore not stated) (human, UniProt Q96F46 33-320, limits assumed); test: low resolution BIAcore, subcloned hybridoma
[5] = target: T3, cynomolgus IL-17RA, on cells; test: FACS competition: non-clonal supernatant inhibiting biotin-huIL-17A (competitor) binding to cyno IL-17RA+ CHO cells; remark: listed apart in the source
huIL-17RA-FLAG-polyHis [6] = target: T4, huIL-17RA-FLAG-polyHis (human, UniProt Q96F46 33-320); test: binning; IL-17RA held by bead mAb K
T4 construct: also called IL-17RA-FLAG-pHis; wild-type IL-17RA

huIL-17RA-FLAG-polyHis [7] = target: T4, huIL-17RA-FLAG-polyHis; test: binning; IL-17RA held by bead mAb D
huIL-17RA-FLAG-polyHis [8] = target: T4, huIL-17RA-FLAG-polyHis; test: binning; IL-17RA held by bead mAb E
huIL-17RA-FLAG-polyHis [9] = target: T4, huIL-17RA-FLAG-polyHis; test: binning; IL-17RA held by bead mAb O
huIL-17RA-FLAG-polyHis [10] = target: T4, huIL-17RA-FLAG-polyHis; test: binning; IL-17RA held by bead mAb L
huIL-17RA-FLAG-polyHis [11] = target: T4, huIL-17RA-FLAG-polyHis; test: binning; IL-17RA held by bead mAb R
huIL-17RA-FLAG-polyHis [12] = target: T4, huIL-17RA-FLAG-polyHis; test: binning; IL-17RA held by bead mAb G
huIL-17RA-FLAG-polyHis [13] = target: T4, huIL-17RA-FLAG-polyHis; test: binning; IL-17RA held by bead mAb P
huIL-17RA-FLAG-polyHis [14] = target: T4, huIL-17RA-FLAG-polyHis; test: binning; IL-17RA held by bead mAb H
huIL-17RA-FLAG-polyHis [15] = target: T4, huIL-17RA-FLAG-polyHis; test: binning; IL-17RA held by bead mAb C
huIL-17RA-FLAG-polyHis [16] = target: T4, huIL-17RA-FLAG-polyHis; test: binning; IL-17RA held by bead mAb N
huIL-17RA-FLAG-polyHis [17] = target: T4, huIL-17RA-FLAG-polyHis; test: binning; IL-17RA held by bead mAb M
huIL-17RA-FLAG-polyHis [18] = target: T4, huIL-17RA-FLAG-polyHis; test: binning; IL-17RA held by bead mAb F
huIL-17RA-FLAG-polyHis [19] = target: T4, huIL-17RA-FLAG-polyHis; test: binning; IL-17RA held by bead mAb Q
huIL-17RA-FLAG-polyHis [20] = target: T4, huIL-17RA-FLAG-polyHis; test: binning; IL-17RA held by bead mAb I
huIL-17RA-FLAG-polyHis [21] = target: T4, huIL-17RA-FLAG-polyHis; test: binning; IL-17RA held by bead mAb B
huIL-17RA-FLAG-polyHis [22] = target: T4, huIL-17RA-FLAG-polyHis; test: binning; IL-17RA held by bead mAb J
huIL-17RA-FLAG-polyHis [23] = target: T4, huIL-17RA-FLAG-polyHis; test: binning; IL-17RA held by bead mAb A
chimera J = target: T5, chimera J; test: Bio-Plex titration on His-captured chimera;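 note: binding of anti-IL-17RA antibodies (4-fold titration across about 5 logs, 1 h) to His-captured IL-17RA chimeras on multiplexed beads, MFI read as percent of maximal wild-type human IL-17RA signal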
T5 construct: human IL-17RA extracellular domain with mouse Domains D and E; column head D+E; also called Construct J

chimera D = target: T1, chimera D; test: Bio-Plex titration on His-captured chimera;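 note: binding of anti-IL-17RA antibodies (4-fold titration across about 5 logs, 1 h) to His-captured IL-17RA chimeras on multiplexed beads, MFI read as percent of maximal wild-type human IL-17RA signal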
[24] = target: T3, cynomolgus IL-17RA, on cells; test: cell-based or functional assay

% inhibition of IL-6 Production, IL-17A/HFF bioassay, non-clonal supernatant 1:4 [1]	% inhibition of IL-6 Production, IL-17A/HFF bioassay, non-clonal supernatant 1:32 [1]	% inhibition of IL-6 Production, IL-17A/HFF bioassay, non-clonal supernatant 1:128 [1]	MFI [2]	Kd [4]	normalized MFI (huIL-17RA-FLAG-polyHis [6])	normalized MFI (huIL-17RA-FLAG-polyHis [7])	normalized MFI (huIL-17RA-FLAG-polyHis [8])	normalized MFI (huIL-17RA-FLAG-polyHis [9])	normalized MFI (huIL-17RA-FLAG-polyHis [10])	normalized MFI (huIL-17RA-FLAG-polyHis [11])	normalized MFI (huIL-17RA-FLAG-polyHis [12])	normalized MFI (huIL-17RA-FLAG-polyHis [13])	normalized MFI (huIL-17RA-FLAG-polyHis [14])	normalized MFI (huIL-17RA-FLAG-polyHis [15])	normalized MFI (huIL-17RA-FLAG-polyHis [16])	normalized MFI (huIL-17RA-FLAG-polyHis [17])	normalized MFI (huIL-17RA-FLAG-polyHis [18])	normalized MFI (huIL-17RA-FLAG-polyHis [19])	normalized MFI (huIL-17RA-FLAG-polyHis [20])	Binder	also measured
73%	78%	75%	6	7.6 nM																AMH13/AML13 (antibody, IgG2, V domains shown, human mAb from IgG2 XenoMouse mice; also called AM-13) VH: QVQLVESGGGVVQPGRSLRLSCAASGFTFSSYGMQWVRQAPGKGLEWVAVIWYDGNKKYYADSVKGRFTISRDNSKNTLYLQMNSLRAEDTAVYYCARGRVRDYYYGMDVWGQGTTVTVSS VL: DIVMTQTPLSLSVTPGQPASIACKSSQSLLHSDGKTYLYWYLQKPGQPPQLLIYEVSTRFSGVPDRFSGSGSGTDFTLKISRVEAEDVGVFYCMQSIQLPLTFGGGTKVEIK	IL-17A/HFF bioassay IC50, subclone 13 [3]: > 10 nM
																				AMH15/AML15 (antibody, IgG2, V domains shown, human mAb from IgG2 XenoMouse mice; tested only as part of a non-clonal hybridoma supernatant; also called AM-15) VH: QVQLVESGGGVVQPGRSLRLSCAASGFTFSSYGMQWVRQAPGKGLEWVAVIWYDGNKKYYADSVKGRFTISRDNSKNTLYLQMNSLRAEDTAVYYCARGRVRDYYYGMDVWGQGTTVTVSS VL: EIVMTQSPATLSVSPGERVTLSCRASQSVSSNLAWFQQKPGQAPRPLIYDASTRAAGIPARFSGSGSGTDFTLTISSLQSEDFAVYYCQQYDNWPLTFGGGTKVEIK	MFI [5]: 6
75%	82%	61%	6	8.2 nM	-5	888	765	49	18	40	3280	1900	73	3040	11	20	1410	60	26	AMH12/AML12 (antibody, IgG2, V domains shown, human mAb from IgG2 XenoMouse mice; also called AM-12; antibody M) VH: QVQLVQSGAEVKKPGASVKVSCKASGYTLTSYGISWVRQAPGQGLEWMGWISTYKGNTNYAQKLQGRVTMTTDTSTSTAYMELRSLRSDDTAVYYCARKQLVFDYWGQGTLVTVSS VL: EIVMTQSPATLSVSPGERATLSCRASQSISSSLAWYQQKPGQAPRLLIYGASTRATGIPARFSGSGSGTEFTLTISSLQSENFAVYYCQQYDNWPLTFGGGTKVEIK	IL-17A/HFF bioassay IC50, subclone 17 [3]: 3.5 nM; IL-17A/HFF bioassay IC50, subclone 18 [3]: 3.7 nM; IL-17A/HFF bioassay IC50, subclone 20 [3]: 5.5 nM; normalized MFI (huIL-17RA-FLAG-polyHis [21]): 455; normalized MFI (huIL-17RA-FLAG-polyHis [22]): 31; normalized MFI (huIL-17RA-FLAG-polyHis [23]): 1940
90%	81%	73%	8	8.2 nM	-44	1200	999	55	-1	76	4260	2470	68	3980	43	40	1920	98	18	AMH17/AML17 (antibody, V domains shown, human mAb from IgG2 XenoMouse mice; also called AM-17; antibody N) VH: QVQLVQSGAEVKKPGAAVKVSCKATGYTLTSYGISWVRQAPGQGLEWMGWISAYSGNTKYAQKLQGRVTMTTDTSTSTAYMELRSLRSDDTAVYYCARKQLVFDYWGQGTLVTVSS VL: not shown	IL-17A/HFF bioassay IC50, subclone 21 [3]: 2.5 nM; IL-17A/HFF bioassay IC50, subclone 22 [3]: 5.3 nM; IL-17A/HFF bioassay IC50, subclone 23 [3]: 0.57 nM; normalized MFI (huIL-17RA-FLAG-polyHis [21]): 597; normalized MFI (huIL-17RA-FLAG-polyHis [22]): 8; normalized MFI (huIL-17RA-FLAG-polyHis [23]): 2470
																				AMH26/AML26 (antibody, IgG2, V domains shown, human mAb from IgG2 XenoMouse mice; also called AM-26; antibody P) VH: QVQLVESGGGLVKPGGSLRLSCAASGFTFSDYYMSWIRQAPGKGLEWVSYISSSGSTIYYADSVKGRFTISRDNAKNSLYLQMNSLRAEDTAVYYCARDRTYYFGSGSYEGMDVWGQGTTVTVSS VL: EILMTQSPATLSVSPGERATLSCRASQSVYSNLAWYQQKPGQAPRLLISGASTRATGIPARFSGSGSGTEFTLTISSLQSEDFAVYYCQQYYNWPWTFGQGTKVEIK	EC50 (chimera J): 0.234 nM; EC50 (chimera D): 0.145 nM
																				AMH14/AML14 (antibody, V domains shown, human mAb from IgG2 XenoMouse mice; also called AM-14; antibody K) VH: QVQLVQSGAEVKKPGASVKVSCKASGYTFTRYGISWVRQAPGQGLEWMGWISTYSGNTNYAQKLQGRVTMTTDTSTSTAYMELRSLRSDDTAVYYCARRQLYFDYWGQGTLVTVSS VL: EIVMTQSPATLSVSPGERATLSCRASQSVSSNLAWFQQKPGQAPRPLIYDASTRATGVPARFSGSGSGTDFTLTISSLQSEDFAVYYCQQYDNWPLTFGGGTKVEIK	MFI [5]: 10; cynomolgous IL-17A-induced IL-6 production from JTC-12 cells, IC50 [24]: ~1.2 nM
86%	90%	71%	6	6.2 nM	-111	1370	1260	139	18	76	4490	2540	120	4510	83	73	2220	135	10	AMH16/AML16 (antibody, IgG2, V domains shown, human mAb from IgG2 XenoMouse mice; also called AM-16; antibody O) VH: QVQLVQSGAEVKKPGASVKVSCKASGYTFTSYGISWVRQAPGQGLEWMGWISAYNGNTKYAQKLQGRVTMTTDTSTSTVYMELRSLRSDDTAVYYCARKQLVFDYWGQGTLVTVSS VL: EIVMTQSPATLSVSPGERATLSCRASQSISTSLAWYQQKPGQAPRLLIYGTSTRATGIPARFSGSGSGTEFTLTISSLQSEDFAVYFCQQYDIWPLTFGGGTKVEIK	IL-17A/HFF bioassay IC50, subclone 24 [3]: 1.6 nM; IL-17A/HFF bioassay IC50, subclone 25 [3]: 2.3 nM; IL-17A/HFF bioassay IC50, subclone 26 [3]: 1.4 nM; normalized MFI (huIL-17RA-FLAG-polyHis [21]): 630; normalized MFI (huIL-17RA-FLAG-polyHis [22]): 59; normalized MFI (huIL-17RA-FLAG-polyHis [23]): 3000
